Experimental data reported in patent US20230265151A1, “GIP/GLP1 CO-AGONIST COMPOUNDS” (priority 2020, published 2023).
Residue numbers refer to the chain shown, from its start.

B1: Example 40 (peptide)
peptide: YXEGTXTSDXSIXLDXKAQXEFIXXLIEGGKSSGAPPPS
modifications: Aib2, αMeF(2F)6, 4Pal10, αMeL13, Orn16, Aib20, D-Glu24, αMeY25, K17 and K31: K((εK)-(εK)-(γ-Glu)-CO-(CH2)12-CO2H), C-terminal NH2
B2: Example 39 (peptide)
peptide: B1 peptide
modifications: Aib2, αMeF(2F)6, 4Pal10, αMeL13, Orn16, Aib20, D-Glu24, αMeY25, K17 and K31: K((εK)-(γ-Glu)-(γ-Glu)-CO-(CH2)12-CO2H), C-terminal NH2
B3: Example 64 (peptide)
peptide: B1 peptide with F22X
modifications: Aib2, αMeF(2F)6, 4Pal10, αMeL13, Orn16, Aib20, 3FPhe22, D-Glu24, αMeY25, K17 and K31: K(AEEA2-(γ-Glu)-CO-(CH2)12-CO2H), C-terminal NH2
B4: Example 54 (peptide)
peptide: B1 peptide
modifications: Aib2, αMeF(2F)6, Ac6c10, αMeL13, Orn16, Aib20, D-Glu24, αMeY25, K17 and K31: K(AEEA2-(γ-Glu)-CO-(CH2)12-CO2H), C-terminal NH2
B5: Example 52 (peptide)
peptide: B1 peptide
modifications: Aib2, αMeF(2F)6, αMeV10, αMeL13, Orn16, Aib20, D-Glu24, αMeY25, K17 and K31: K(AEEA2-(γ-Glu)-CO-(CH2)12-CO2H), C-terminal NH2
B6: Example 44 (peptide)
peptide: B1 peptide
modifications: Aib2, αMeF6, 4Pal10, αMeL13, Orn16, Aib20, D-Glu24, αMeY25, K17 and K31: K(AEEA2-(γ-Glu)-CO-(CH2)12-CO2H), C-terminal NH2
B7: Example 33 (peptide)
peptide: B1 peptide
modifications: Aib2, αMeF(2F)6, 4Pal10, αMeL13, Orn16, Aib20, D-Glu24, αMeY25, K17 and K31: K(AEEA2-(εK)-CO-(CH2)12-CO2H), C-terminal NH2
B8: Example 61 (peptide)
peptide: B1 peptide with F22X
modifications: Aib2, αMeF(2F)6, 4Pal10, αMeL13, Orn16, Aib20, 2ClPhe22, D-Glu24, αMeY25, K17 and K31: K(AEEA2-(γ-Glu)-CO-(CH2)12-CO2H), C-terminal NH2
B9: Example 65 (peptide)
peptide: B1 peptide with F22X
modifications: Aib2, αMeF(2F)6, 4Pal10, αMeL13, Orn16, Aib20, 3,5FPhe22, D-Glu24, αMeY25, K17 and K31: K(AEEA2-(γ-Glu)-CO-(CH2)12-CO2H), C-terminal NH2
B10: Example 37 (peptide)
peptide: B1 peptide
modifications: Aib2, αMeF(2F)6, 4Pal10, αMeL13, Orn16, Aib20, D-Glu24, αMeY25, K17 and K31: K((εK)-AEEA2-(γ-Glu)-CO-(CH2)12-CO2H), C-terminal NH2
B11: Example 3 (peptide)
peptide: B1 peptide
modifications: Aib2, αMeF(2F)6, 4Pal10, αMeL13, Orn16, Aib20, D-Glu24, αMeY25, K17 and K31: K(AEEA2-(γ-Glu)-(4-(4-iodophenyl)butanoyl)), C-terminal NH2
B12: Example 60 (peptide)
peptide: B1 peptide
modifications: Aib2, αMeF(2F)6, Nle10, αMeL13, Orn16, Aib20, D-Glu24, αMeY25, K17 and K31: K(AEEA2-(γ-Glu)-CO-(CH2)12-CO2H), C-terminal NH2
B13: Example 62 (peptide)
peptide: B1 peptide with F22X
modifications: Aib2, αMeF(2F)6, 4Pal10, αMeL13, Orn16, Aib20, 3ClPhe22, D-Glu24, αMeY25, K17 and K31: K(AEEA2-(γ-Glu)-CO-(CH2)12-CO2H), C-terminal NH2
B14: Example 38 (peptide)
peptide: B1 peptide
modifications: Aib2, αMeF(2F)6, 4Pal10, αMeL13, Orn16, Aib20, D-Glu24, αMeY25, K17 and K31: K((εK)-(γ-Glu)-CO-(CH2)12-CO2H), C-terminal NH2
B15: Example 57 (peptide)
peptide: B1 peptide
modifications: Aib2, αMeF(2F)6, 2Nal10, αMeL13, Orn16, Aib20, D-Glu24, αMeY25, K17 and K31: K(AEEA2-(γ-Glu)-CO-(CH2)12-CO2H), C-terminal NH2
B16: Example 2 (peptide)
peptide: B1 peptide
modifications: Aib2, αMeF(2F)6, 4Pal10, αMeL13, Orn16, Aib20, D-Glu24, αMeY25, K17 and K31: K(AEEA2-(γ-Glu)-(10-(4-carboxyphenoxy)decanoyl)), C-terminal NH2
B17: Example 41 (peptide)
peptide: B1 peptide
modifications: Aib2, αMeF(2F)6, 4Pal10, αMeL13, Orn16, Aib20, D-Glu24, αMeY25, K17 and K31: K((γ-Glu)-AEEA2-CO-(CH2)12-CO2H), C-terminal NH2
B18: Example 55 (peptide)
peptide: B1 peptide
modifications: Aib2, αMeF(2F)6, Bip10, αMeL13, Orn16, Aib20, D-Glu24, αMeY25, K17 and K31: K(AEEA2-(γ-Glu)-CO-(CH2)12-CO2H), C-terminal NH2
B19: Example 47 (peptide)
peptide: B1 peptide with F22X
modifications: Aib2, αMeF6, 4Pal10, αMeL13, Orn16, Aib20, αMeF22, D-Glu24, αMeY25, K17 and K31: K(AEEA2-(γ-Glu)-CO-(CH2)12-CO2H), C-terminal NH2
B20: Example 7 (peptide)
peptide: B1 peptide
modifications: Aib2, αMeF(2F)6, 4Pal10, αMeL13, Orn16, Aib20, D-Glu24, αMeY25, K17 and K31: K(AEEA2-(γ-Glu)-CO-(CH2)14-CH3), C-terminal NH2
B21: Example 43 (peptide)
peptide: B1 peptide
modifications: Aib2, αMeF(2F)6, 4Pal10, αMeL13, Orn16, Aib20, D-Glu24, αMeY25, K17 and K31: K(AEEA-(γ-Glu)-AEEA-CO-(CH2)12-CO2H), C-terminal NH2

What follows are binders tested against T1, human GIP receptor (human, UniProt P48546 22-466) (assay: cell-based or functional assay).
T1 sequence (looked up): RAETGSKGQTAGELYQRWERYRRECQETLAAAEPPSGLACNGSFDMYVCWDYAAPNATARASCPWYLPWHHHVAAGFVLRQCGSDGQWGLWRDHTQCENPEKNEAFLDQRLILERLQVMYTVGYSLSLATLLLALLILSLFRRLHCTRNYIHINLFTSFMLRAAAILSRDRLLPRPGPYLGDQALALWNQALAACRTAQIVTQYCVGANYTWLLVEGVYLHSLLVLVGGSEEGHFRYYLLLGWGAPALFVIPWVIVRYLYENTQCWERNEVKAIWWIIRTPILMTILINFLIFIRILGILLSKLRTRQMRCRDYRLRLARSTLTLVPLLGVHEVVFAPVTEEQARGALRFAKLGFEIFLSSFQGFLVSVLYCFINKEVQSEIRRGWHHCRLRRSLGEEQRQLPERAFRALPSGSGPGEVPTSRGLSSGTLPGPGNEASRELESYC

Row | Binder | EC50, cAMP | Emax, cAMP
1 | B1 | 0.0116 nM | 
2 | B2 | 0.0238 nM | 
3 | B3 | 0.0158 nM | 
4 | B4 | 0.0675 nM | 113%
5 | B5 | 0.258 nM | 
6 | B6 | 0.0637 nM | 
7 | B7 | 0.00957 nM | 
8 | B8 | 0.012 nM | 
9 | B9 | 0.0139 nM | 
10 | B10 | 0.0211 nM | 
11 | B11 | 0.0133 nM | 
12 | B12 | 0.0126 nM | 
13 | B13 | 0.0211 nM | 
14 | B14 | 0.0155 nM | 
15 | B15 | 0.0135 nM | 
16 | B16 | 0.0154 nM | 
17 | B17 | 0.0108 nM | 
18 | B18 | 0.0207 nM | 
19 | B19 | 0.0138 nM | 
20 | B20 | 0.00327 nM | 
21 | B21 | 0.0123 nM | 

Each binder was assayed against human GLP-1 receptor (human, UniProt P43220 24-463) (assay: cell-based or functional assay).

Row | Binder | EC50, cAMP | Emax, cAMP
22 | B1 | 0.279 nM | 
23 | B2 | 0.358 nM | 
24 | B3 | 0.557 nM | 97.3%
25 | B4 | 0.538 nM | 
26 | B5 | 0.384 nM | 
27 | B6 | 4.77 nM | 
28 | B7 | 0.37 nM | 
29 | B8 | 1.35 nM | 82.9%
30 | B9 | 0.3 nM | 
31 | B10 | 0.909 nM | 
32 | B11 | 0.223 nM | 
33 | B12 | 0.19 nM | 
34 | B13 | 0.48 nM | 99.4%
35 | B14 | 0.225 nM | 
36 | B15 | 0.14 nM | 
37 | B16 | 1.14 nM | 
38 | B17 | 0.691 nM | 
39 | B18 | 0.154 nM | 
40 | B19 | 1.94 nM | 87.1%
41 | B20 | 0.00676 nM | 
42 | B21 | 0.821 nM | 

What follows are binders tested against human glucagon receptor (human, UniProt P47871 26-477) (assay: cell-based or functional assay).

Row | Binder | EC50, cAMP
43 | B1 | > 9.95 µM
44 | B2 | > 9.95 µM
45 | B3 | > 9.95 µM
46 | B4 | > 9.95 µM
47 | B5 | > 9.95 µM
48 | B6 | > 9.95 µM
49 | B7 | > 9.95 µM
50 | B8 | > 9.95 µM
51 | B9 | > 9.95 µM
52 | B10 | > 9.95 µM
53 | B11 | > 9.95 µM
54 | B12 | > 9.95 µM
55 | B13 | > 9.95 µM
56 | B14 | > 9.95 µM
57 | B15 | > 9.95 µM
58 | B16 | > 9.95 µM
59 | B17 | > 9.95 µM
60 | B18 | > 9.95 µM
61 | B19 | > 9.95 µM
62 | B20 | > 9.95 µM
63 | B21 | > 9.95 µM
